From paper PMC2737084 (Biochemistry, 2009)

Molecular target: the molecule itself
Assay: SEC

B1: Pseudomonas aeruginosa bacterioferritin B (natural protein)
chain: not shown
- stoichiometry N: 24
